According to the supplement of paper PMC7125110:
± gives the standard error. This sample holds only a part of the variants without activity.

B1: glmS ribozyme (parent)
chain: AUAAAAGCGCCAGAACUACAGAAAUGUAGUUGACGAGGAGGAGGUUUAUCGAAUUUUCGGCGGAUGCCUCCAAA

Experiments:
Conditions in all cases: with glucosamine-6-phosphate
glucosamine-6-phosphate [1] = variants of: B1; assay: self-cleavage kobs at 40 uM GlcN6P; higher = faster cleavage; RNA array
Procedure, shortened: (§1)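 Sequenced MiSeq chips were the platform: E. coli RNA polymerase transcribed barcoded ribozyme variants on them in situ, and a hybridised Cy3 probe tracked these at 37 °C. After glucosamine-6-phosphate (40 μM to 10 mM) in HEPES/KCl/Mg(OAc)2 buffer was flowed in, tiles were imaged over ~14 h. Signals normalised to baseline and to non-cleaving reference variants were reduced to per-tile medians and fit to one- or two-exponential decays to obtain kobs. kcat and KM were derived through weighted Michaelis–Menten fits across concentrations.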

glucosamine-6-phosphate [2] = variants of: B1; assay: self-cleavage kobs at 160 uM GlcN6P; higher = faster cleavage; RNA array
Procedure, shortened: as §1

glucosamine-6-phosphate [3] = variants of: B1; assay: self-cleavage kobs at 10000 uM GlcN6P; higher = faster cleavage; RNA array
Procedure, shortened: as §1

glucosamine-6-phosphate [4] = variants of: B1; assay: self-cleavage kobs at 640 uM GlcN6P; higher = faster cleavage; RNA array
Procedure, shortened: as §1

glucosamine-6-phosphate [5] = variants of: B1; assay: self-cleavage kobs at 2500 uM GlcN6P; higher = faster cleavage; RNA array
Procedure, shortened: as §1

| Variant | self-cleavage kobs at 40 uM GlcN6P (glucosamine-6-phosphate [1]) [s⁻¹] | self-cleavage kobs at 160 uM GlcN6P (glucosamine-6-phosphate [2]) [s⁻¹] | self-cleavage kobs at 10000 uM GlcN6P (glucosamine-6-phosphate [3]) [s⁻¹] | self-cleavage kobs at 640 uM GlcN6P (glucosamine-6-phosphate [4]) [s⁻¹] | self-cleavage kobs at 2500 uM GlcN6P (glucosamine-6-phosphate [5]) [s⁻¹] |
| --- | --- | --- | --- | --- | --- |
| G9U A64G | < 1e-05 | < 1e-05 | < 1e-05 |  |  |
| G9A G63C | < 1e-05 |  | < 1e-05 |  |  |
| C8U A48G C70U | < 1e-05 |  | < 1e-05 | < 1e-05 |  |
| G9A A14C | < 1e-05 | < 1e-05 |  |  | < 1e-05 |
| C8A G32A G37A | < 1e-05 |  |  |  |  |
| G9A G62A | < 1e-05 | < 1e-05 |  | < 1e-05 |  |
| G9A A53U | < 1e-05 | < 1e-05 |  | < 1e-05 |  |
| G9A C16U A42G C50G | 0.000108 ± 4.9e-05 |  |  |  |  |
| G9C C10G | < 1e-05 | < 1e-05 | < 1e-05 | < 1e-05 | < 1e-05 |
| G9U A36C G38C | < 1e-05 |  | < 1e-05 |  |  |
| G9C G38U G63A | < 1e-05 |  |  |  |  |
| G9A A12U C61A | < 1e-05 |  |  |  |  |
| G9A G32A | < 1e-05 |  | < 1e-05 | < 1e-05 | < 1e-05 |
| G9C G37A G60C U65A | < 1e-05 |  |  |  | < 1e-05 |
| C8A C34G A52U C67U | < 1e-05 |  | < 1e-05 |  |  |
| C8A C50G A53U C67U | 0.000239 ± 5.6e-05 |  | 0.000304 ± 5e-05 | 0.000168 ± 5.7e-05 | 0.000626 ± 0.00028 |
| G9C U30A U46C U56A | < 1e-05 |  | < 1e-05 |  |  |
| C8A G44U | < 1e-05 | < 1e-05 | < 1e-05 | < 1e-05 |  |
| G9C A42U | < 1e-05 | < 1e-05 |  |  | < 1e-05 |
| C8A C50A | < 1e-05 | < 1e-05 | < 1e-05 | < 1e-05 | < 1e-05 |
| G9C C11U | < 1e-05 | < 1e-05 | < 1e-05 | < 1e-05 | < 1e-05 |
| G9A U31G C68G | < 1e-05 |  |  | < 1e-05 |  |
| G9A A39U G44A U55C | < 1e-05 |  | < 1e-05 |  |  |
| G9A C11G G35U G37U C61U | < 1e-05 |  |  |  | < 1e-05 |

| Variant | self-cleavage kobs at 40 uM GlcN6P (glucosamine-6-phosphate [1]) [s⁻¹] | self-cleavage kobs at 160 uM GlcN6P (glucosamine-6-phosphate [2]) [s⁻¹] | self-cleavage kobs at 10000 uM GlcN6P (glucosamine-6-phosphate [3]) [s⁻¹] | self-cleavage kobs at 640 uM GlcN6P (glucosamine-6-phosphate [4]) [s⁻¹] | self-cleavage kobs at 2500 uM GlcN6P (glucosamine-6-phosphate [5]) [s⁻¹] |
| --- | --- | --- | --- | --- | --- |
| G9U C34U | < 1e-05 |  | < 1e-05 | < 1e-05 | < 1e-05 |
| G9U C34A | < 1e-05 | < 1e-05 | < 1e-05 | < 1e-05 |  |
| C8G A39U C58U | < 1e-05 | < 1e-05 | < 1e-05 | < 1e-05 |  |
| G9U G43U C70G | < 1e-05 |  | < 1e-05 |  |  |
| G9U C68A | < 1e-05 | < 1e-05 | < 1e-05 |  | < 1e-05 |
| C8U G29A G40U U45A | < 1e-05 |  | < 1e-05 |  |  |
| G9U C10U A36U G51A C70G | < 1e-05 |  |  |  |  |
| C8G U54C | < 1e-05 | < 1e-05 | < 1e-05 | < 1e-05 | < 1e-05 |
| G9C A14G | < 1e-05 | < 1e-05 | < 1e-05 | < 1e-05 | < 1e-05 |
| G9C A39G G40U U49C | < 1e-05 |  | < 1e-05 |  |  |
| G9C G41U C50A | < 1e-05 |  |  |  |  |
| C8U G13U A39C | < 1e-05 |  |  |  |  |
| C8U A48G | < 1e-05 | < 1e-05 | < 1e-05 |  | < 1e-05 |
| G9A G13U A15G G37C A39C A53U C67G C68A | 0.000469 ± 0.00015 |  | 0.000282 ± 7.8e-05 | 0.000121 ± 4.4e-05 |  |
| G9C C11G G37A G38A U54C A64G | < 1e-05 |  |  |  |  |
| C8U G37C | < 1e-05 | < 1e-05 | < 1e-05 | < 1e-05 | < 1e-05 |
| G9A G43C | < 1e-05 |  |  |  |  |
| C8A C16U U45C G62U C70A | < 1e-05 |  |  |  |  |
| G9C C10U G37U | < 1e-05 |  |  | < 1e-05 |  |
| G9C G63A A64C C70G | < 1e-05 |  | < 1e-05 |  |  |
| C8G U49A U54C G59U C67A | < 1e-05 | < 1e-05 | < 1e-05 | < 1e-05 | < 1e-05 |
| G9U G35C G43A | < 1e-05 | < 1e-05 |  | < 1e-05 |  |
| C8U C68U C70U | < 1e-05 |  | < 1e-05 |  |  |
